From patent US20230406951A1 (Pfizer, published 2023)

T1: human TNFR2 (human, UniProt P20333 23-461)
T1 construct: expressed on the surface of CHO cells; also called HuTNFR2; TNFRSF1B
T1 sequence: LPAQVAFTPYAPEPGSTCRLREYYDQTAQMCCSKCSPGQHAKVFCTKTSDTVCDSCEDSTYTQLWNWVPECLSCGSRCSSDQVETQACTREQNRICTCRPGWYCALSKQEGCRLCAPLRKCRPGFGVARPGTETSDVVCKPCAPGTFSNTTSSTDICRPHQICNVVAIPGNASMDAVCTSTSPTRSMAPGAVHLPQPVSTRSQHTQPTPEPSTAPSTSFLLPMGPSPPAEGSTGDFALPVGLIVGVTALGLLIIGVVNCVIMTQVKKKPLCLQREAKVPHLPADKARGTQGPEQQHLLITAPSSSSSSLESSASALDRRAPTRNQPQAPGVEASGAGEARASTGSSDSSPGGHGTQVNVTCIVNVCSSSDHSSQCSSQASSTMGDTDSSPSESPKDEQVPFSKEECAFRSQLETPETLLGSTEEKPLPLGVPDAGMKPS


Each binder was assayed against T1, human TNFR2 (assay: binding to human TNFR2 CHO cells).

binding result | Binder
no binding | TetraFab 2084 (antibody, TetraFab) heavy: QVQLVQSGAEVKKPGASVKVSCKVSGFSFPSSGVDWVRQAPGQGLEWLGVTRGEGSTHYNQKFQGRVTITKDTSKSTVYMELSSLRSEDTAVYYCASGEWDEGFVYWGQGTLVTVSSASTKGPSVFPLAPSSKSTSGGTAALGCLVKDYFPEPVTVSWNSGALTSGVHTFPAVLQSSGLYSLSSVVTVPSSSLGTQTYICNVNHKPSNTKVDKKVEPKSCGGGGSQVQLVQSGAEVKKPGASVKVSCKVSGFSFPSSGVDWVRQAPGQGLEWLGVTRGEGSTHYNQKFQGRVTITKDTSKSTVYMELSSLRSEDTAVYYCASGEWDEGFVYWGQGTLVTVSSASTKGPSVFPLAPSSKSTSGGTAALGCLVKDYFPEPVTVSWNSGALTSGVHTFPAVLQSSGLYSLSSVVTVPSSSLGTQTYICNVNHKPSNTKVDKKVEPKSCDKTHTCPPCPAPEAAGAPSVFLFPPKPKDTLMISRTPEVTCVVVDVSHEDPEVKFNWYVDGVEVHNAKTKPREEQYNSTYRVVSVLTVLHQDWLNGKEYKCKVSNKALPAPIEKTISKAKGQPREPQVYTLPPSREEMTKNQVSLTCLVKGFYPSDIAVEWESNGQPENNYKTTPPVLDSDGSFFLYSKLTVDKSRWQQGNVFSCSVMHEALHNHYTQKSLSLSPGK light: DIQLTQSPSFLSASVGDRVTITCKASQNVGTAVAWYQQKPGKAPKLLIYAASTLQSGVPSRFSGSGSGTEFTLTISSLQPEDFATYYCQQYNSYPFGGGTKVEIKRTVAAPSVFIFPPSDEQLKSGTASVVCLLNNFYPREAKVQWKVDNALQSGNSQESVTEQDSKDSTYSLSSTLTLSKADYEKHKVYACEVTHQGLSSPVTKSFNRGEC
no binding | TetraFab 2087 (antibody, TetraFab) heavy: QVQLVQSGAEVKKPGASVKVSCKVSGFSFPSSGVDWVRQAPGQGLEWLGVTHGSGSTHYNQKFQGRVTITKDTSKSTVYMELSSLRSEDTAVYYCASGEWDEGFVYWGQGTLVTVSSASTKGPSVFPLAPSSKSTSGGTAALGCLVKDYFPEPVTVSWNSGALTSGVHTFPAVLQSSGLYSLSSVVTVPSSSLGTQTYICNVNHKPSNTKVDKKVEPKSCGGGGSQVQLVQSGAEVKKPGASVKVSCKVSGFSFPSSGVDWVRQAPGQGLEWLGVTHGSGSTHYNQKFQGRVTITKDTSKSTVYMELSSLRSEDTAVYYCASGEWDEGFVYWGQGTLVTVSSASTKGPSVFPLAPSSKSTSGGTAALGCLVKDYFPEPVTVSWNSGALTSGVHTFPAVLQSSGLYSLSSVVTVPSSSLGTQTYICNVNHKPSNTKVDKKVEPKSCDKTHTCPPCPAPEAAGAPSVFLFPPKPKDTLMISRTPEVTCVVVDVSHEDPEVKFNWYVDGVEVHNAKTKPREEQYNSTYRVVSVLTVLHQDWLNGKEYKCKVSNKALPAPIEKTISKAKGQPREPQVYTLPPSREEMTKNQVSLTCLVKGFYPSDIAVEWESNGQPENNYKTTPPVLDSDGSFFLYSKLTVDKSRWQQGNVFSCSVMHEALHNHYTQKSLSLSPGK light: DIQLTQSPSFLSASVGDRVTITCKASQNVGTAVAWYQQKPGKAPKLLIYAASTLQSGVPSRFSGSGSGTEFTLTISSLQPEDFATYYCQQYNSYPFGGGTKVEIKRTVAAPSVFIFPPSDEQLKSGTASVVCLLNNFYPREAKVQWKVDNALQSGNSQESVTEQDSKDSTYSLSSTLTLSKADYEKHKVYACEVTHQGLSSPVTKSFNRGEC
no binding | IgG 2202 (antibody, name in Kabat numbering, V domains shown, IgG) VH: QVQLVQSGAEVKKPGASVKVSCKVSGFSFPSSGVDWVRQAPGQGLEWLGVTWGVGSTHYNQKFQGRVTITKDTSKSTVYMELSSLRSEDTAVYYCASGEWDEGFVYWGQGTLVTVSS VL: DIQLTQSPSFLSASVGDRVTITCKASQNVGTAVAWYQQKPGKAPKLLIYAASTLQSGVPSRFSGSGSGTEFTLTISSLQPEDFATYYCQQYNSYPFGGGTKVEIKR
no binding | IgG 2203 (antibody, name in Kabat numbering, V domains shown, IgG) VH: QVQLVQSGAEVKKPGASVKVSCKVSGFSFPSSGVDWVRQAPGQGLEWLGVTWGVGSTHYNQKFQGRVTITKDTSKSTVYMELSSLRSEDTAVYYCASGEWDEGFVYWGQGTLVTVSS VL: DIQLTQSPSFLSASVGDRVTITCKASQNVGTAVAWYQQKPGKAPKLLIYAASTLQSGVPSRFSGSGSGTEFTLTISSLQPEDFATYYCQQYYSTPFGGGTKVEIKR
